Assays:
Thrombin = Thrombin (UniProt P00734;P00734 328-363;364-622); experiment: strand-displacement fluorescence (Rep-2); 2-500 nM thrombin; LOD 0.96 nM; 5 mM Mg2+; 20 mM Tris-HCl pH 7.5 (22 °C), 100 mM NaCl, 0.1 mM EDTA, 5 mM MgCl2 (20 mM MgCl2 for DNAzyme), room temperature; indirect read-out by strand-displacement fluore
PDGF-BB = PDGF-BB (human, UniProt P01127 82-190); experiment: strand-displacement fluorescence (Rep-2); 50 nM PDGF; 5 mM Mg2+; 20 mM Tris-HCl pH 7.5 (22 °C), 100 mM NaCl, 0.1 mM EDTA, 5 mM MgCl2 (20 mM MgCl2 for DNAzyme), room temperature; indirect read-out by strand-displacement fluorescence; details: protein: recombinant; chain copies: 2; hairpin, 2-bp stem
PDGF-BB, sequence (P01127 82-190): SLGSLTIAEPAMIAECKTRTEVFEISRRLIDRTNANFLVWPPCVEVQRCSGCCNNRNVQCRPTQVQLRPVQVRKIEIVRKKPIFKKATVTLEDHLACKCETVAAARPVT

Row | Binder | binding result (Thrombin) | binding result (PDGF-BB)
1 | Apt-Thr-3bp (= Apt-Thr-OR, Apt-Thr-NOT) (structured_DNA) DNA: ATGTCAACGTTGTCCGTGGTAGGGCAGGTTGGGGTGACTTGGATAGGTAGGGTACGCT | binds | –
2 | Apt-PDGF-2bp (structured_DNA) DNA: ATGTCAACGTTGGCTACGGCACGTAGAGCATCACCATGATCCTTGGATAGGTAGGGTACGCT | – | binds

Reference: paper PMC8329073, “A kinetically controlled platform for ligand-oligonucleotide transduction”
